Measurements: paper PMC7507306, “Highly active rubiscos discovered by systematic interrogation of natural sequence diversity” (The EMBO Journal, 2020)
Values belong to the molecule of their own block, whether it stands above or below them.

Tests used:
Assay in all cases: SEC; analytical gel filtration of the purified rubisco; oligomer state read from the elution; conditions not shown (Appendix)
[1] = target: Acidithiobacillus ferrooxidans rubisco (form-II) (Acidithiobacillus ferrooxidans)
[2] = target: Gallionella sp. rubisco (form-II) (Gallionella sp.)
[3] = target: Sulfurivirga caldicuralii rubisco (form-II) (Sulfurivirga caldicuralii)
[4] = target: Zetaproteobacteria_53_45 rubisco (form-II) (Zetaproteobacteria_53_45)
[5] = target: Zetaproteobacterium rubisco (form-II) (Zetaproteobacterium)
[6] = target: the molecule itself

stoichiometry N [1]: 6
Molecule: Acidithiobacillus ferrooxidans rubisco (form-II) (enzyme)

stoichiometry N [2]: 2
Molecule: Gallionella sp. rubisco (form-II) (enzyme)

stoichiometry N [3]: 4
Molecule: Sulfurivirga caldicuralii rubisco (form-II) (enzyme)

stoichiometry N [4]: 2
Molecule: Zetaproteobacteria_53_45 rubisco (form-II) (enzyme)

stoichiometry N [5]: 2
Molecule: Zetaproteobacterium rubisco (form-II) (enzyme)

B1: Hydrogenovibrio marinus rubisco (form-II) (enzyme, UniProt Q59462 1-463, looked up)
chain: MDQSNRYADLTLTEEKLVADGNHLLVAYRLKPAAGYGFLEVAAHVAAESSTGTNVEVSTTDDFTRGVDALVYEIDEAAFGDKGGLMKIAYPVDLFDPNLIDGHYNVSHMWSLILGNNQGMGDHEGLRMLDFLVPEKMVKRFDGPATDISDLWKVLGRPEVDGGYIAGTIIKPKLGLRPEPFAKACYDFWLGGDFIKNDEPQANQNFCPMEVVIPKVAEAMDRAQQATGQAKLFSANVTADFHEEMIKRGEYVLGEFAKYGNEKHVAFLVDGFVTGPAGVTTSRRAFPDTYLHFHRAGHGAVTSYKSPMGMDPLCYMKLARLMGASGIHTGTMGYGKMEGHNDERVLAYMLERDECQGPYFYQKWYGMKPTTPIISGGMDALRLPGFFENLGHGNVINTCGGGSFGHIDSPAAGGISLGQAYACWKTGAEPIEAPREFARAFESFPGDADKIFPGWREKLGVHK
notes: form-II rubisco large subunit from Hydrogenovibrio marinus; scarless tag cleavage gives the native rubisco; source: E. coli BL21(DE3), purified (nickel magnetic beads, eluted by on-bead cleavage of the SUMO tag with bdSENP1); not shown: 14xHis, N-terminal, cleaved; bdSUMO, N-terminal, cleaved
stoichiometry N [6]: 2
